Laboratory results: the supplement of paper PMC7877785
± gives the uncertainty stated by the source.

Experiment: self-splicing fitness, log relative to wild type (ln ratio); higher = more splicing; Tetrahymena group I intron in knt gene, E. coli kanamycin selection, DiMSum; sequences stand for … in CUCUCU…GGAGGGAAAAGUUAUCAGGCAUGCACCUGGUAGCUAGUCUUUAAACCAAUAGAUUGCAUCGGUUUAAAAGGCAAGACCGUCAAAUUGCGGGAAAGGGGUCAACAGCCGUUCAGUACCAAGUCUCAGGGGAAACUUUGAGAUGGCCUUGCAAAGGGUAUGGUAAUAAGCUGACGGACAUGGUCCUAACCACGCAGCCAAGUCCUAAGUCAACAGAUCUUCUGUUGAUAUGGAUGCAGUUCACAGACUAAAUGUCGGUCGGGGAAGAUGUAUUCUUCUCAUAAGAUAUAGUCGGACCUCUCCUUAAUGGGAGCUAGCGGAUGAAGUGAUGCAACACUGGAGCCGCUGGGAACUAAUUUGUAUGCGAAAGUAUAUUGAUUAGUUUUGGAGUACUCGUGGUCG
Procedure, shortened: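 The eight P1ex-region nucleotides of an intron in the knt kanamycin-resistance gene on pET-22b(+) were all randomised and the library put into E. coli BL21(DE3). Six replicate transformations were grown overnight at 37°C or 30°C on LB agar with or without 25 μg/mL kanamycin, together with 100 μg/mL carbenicillin, 50 μM IPTG and 0.2% rhamnose. Colonies were pooled and amplicon-sequenced on an Illumina HiSeq 2500. Fitness from DiMSum is the error-weighted combination of wild-type-normalised replicate fold changes, kanamycin over none.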

Sequence | self-splicing fitness (ln) (30 °C) | self-splicing fitness (ln) (37 °C)
GUUCAGCAAUAUUACGCUGG | -4.05 ± 0.27 | -1.53 ± 0.13
UAUUAGCAAUAUUACGACGA | -0.31 ± 0.18 | -0.557 ± 0.23
UGUGAGCAAUAUUACGGUAU | -3.87 ± 0.34 | 
CUGUAGCAAUAUUACGAGUU | -2.02 ± 0.3 | -3.02 ± 0.37
GGAAAGCAAUAUUACGAACA | -1.34 ± 0.15 | -0.362 ± 0.15
CACCAGCAAUAUUACGAGGC | -2.98 ± 0.17 | -2.46 ± 0.19
GUAAAGCAAUAUUACGGUUG | -2.91 ± 0.21 | -1.41 ± 0.2
CACGAGCAAUAUUACGUAUG | -3.54 ± 0.14 | -2.79 ± 0.16
GUCAAGCAAUAUUACGUAGG | -3.17 ± 0.14 | -2.28 ± 0.15
GUACAGCAAUAUUACGCCCA | -1.14 ± 0.4 | 0.32 ± 0.36
CAUUAGCAAUAUUACGUAGU | -3.66 ± 0.17 | -1.84 ± 0.17
AGCCAGCAAUAUUACGGGGC | -3.88 ± 0.15 | -3.13 ± 0.14
CACAAGCAAUAUUACGGCGU | -1.66 ± 0.088 | -1.57 ± 0.099
CUACAGCAAUAUUACGCGGA | -3.06 ± 0.25 | -3 ± 0.27
ACUUAGCAAUAUUACGGUCA | -1.88 ± 0.15 | -0.773 ± 0.15
UAUUAGCAAUAUUACGGCAG | -0.281 ± 0.085 | -0.424 ± 0.12
CCUGAGCAAUAUUACGGGUA | -2.9 ± 0.27 | -2.07 ± 0.31
GCUCAGCAAUAUUACGGGGU | -3.51 ± 0.15 | -1.39 ± 0.14
UGUAAGCAAUAUUACGACGU | -1.29 ± 0.11 | -0.138 ± 0.13
AACGAGCAAUAUUACGUGGC | -3.85 ± 0.3 | -2.94 ± 0.27
GCCAAGCAAUAUUACGAGCU | -1.35 ± 0.12 | -1.46 ± 0.15
UAUAAGCAAUAUUACGUUGC | -3.02 ± 0.3 | 

Sequence | self-splicing fitness (ln) (30 °C) | self-splicing fitness (ln) (37 °C)
ACACAGCAAUAUUACGCUGU | -3.38 ± 0.14 | -3 ± 0.21
UGGGAGCAAUAUUACGUAUU | -2.76 ± 0.33 | -1.91 ± 0.28
ACACAGCAAUAUUACGGCAG | -1.29 ± 0.067 | -0.371 ± 0.082
UGGAAGCAAUAUUACGCUAG | -0.433 ± 0.1 | -0.523 ± 0.17
UGCAAGCAAUAUUACGGGAA | -2.94 ± 0.16 | -1.33 ± 0.12
CUGGAGCAAUAUUACGCCCA |  | -2.1 ± 0.5
ACAAAGCAAUAUUACGAUGA | -0.411 ± 0.048 | -0.201 ± 0.058
AGGUAGCAAUAUUACGCUGA | -2.032 ± 0.019 | -1.14 ± 0.034
CGUCAGCAAUAUUACGCCAG | -0.944 ± 0.15 | -0.48 ± 0.23
UUGUAGCAAUAUUACGCUAG | -2.06 ± 0.22 | -0.816 ± 0.21
GUAUAGCAAUAUUACGAAAU | -3.05 ± 0.25 | -1.63 ± 0.22
CUAUAGCAAUAUUACGUGAU | -1.33 ± 0.066 | -0.295 ± 0.1
GUCCAGCAAUAUUACGAGGG | -2.29 ± 0.24 | -1.78 ± 0.24
GUCUAGCAAUAUUACGCGCG | -1.36 ± 0.15 | -0.687 ± 0.14
CGAGAGCAAUAUUACGACUA | -2.56 ± 0.46 | 
CCGAAGCAAUAUUACGAAAC | -3.12 ± 0.31 | -2.46 ± 0.37
UAUUAGCAAUAUUACGAAGU | -2.67 ± 0.42 | -2.12 ± 0.4
GACAAGCAAUAUUACGCGCC | -2.58 ± 0.18 | -1.08 ± 0.21
GCUUAGCAAUAUUACGUCCU | -1.01 ± 0.12 | -0.274 ± 0.15
GGGAAGCAAUAUUACGGCUG | -0.935 ± 0.13 | -0.54 ± 0.17
CUAGAGCAAUAUUACGUCGG | -0.971 ± 0.095 | -0.975 ± 0.1
